In article doi:10.1101/2020.01.12.903617, “The peptide sensor motif stabilizes the outward-facing conformation of TmrAB” (bioRxiv, 2020):
Positions count from the first letter of the chain named. No end group written: not given here. fluorescein = fluorescein label attached to the Cys side chain

Legend:
TmrAB R136A^TmrA = target: T1, TmrAB R136A^TmrA (Thermus thermophilus, UniProt Q72J05 1-600; Q72J04 1-578, R136A); assay: fluorescence polarisation; 1.7 uM TmrAB with 50 nM RRY(C^Fluorescein)KSTEL in SEC buffer (20 mM HEPES, 150 mM NaCl, pH 7, 0.05% ß-DDM), 15 minutes on ice, in the absence or presence of 5 mM ATP and 10 mM MgCl2; read at 25°C (the results say 4°C); signal normalized to WT without ATP; settings: both partners purified
T1 construct: TmrA, Thermus thermophilus, the chain of TmrAB with the canonical Walker B motif; TmrB, Thermus thermophilus, the chain of TmrAB with the non-canonical Walker B motif
T1 sequence 1: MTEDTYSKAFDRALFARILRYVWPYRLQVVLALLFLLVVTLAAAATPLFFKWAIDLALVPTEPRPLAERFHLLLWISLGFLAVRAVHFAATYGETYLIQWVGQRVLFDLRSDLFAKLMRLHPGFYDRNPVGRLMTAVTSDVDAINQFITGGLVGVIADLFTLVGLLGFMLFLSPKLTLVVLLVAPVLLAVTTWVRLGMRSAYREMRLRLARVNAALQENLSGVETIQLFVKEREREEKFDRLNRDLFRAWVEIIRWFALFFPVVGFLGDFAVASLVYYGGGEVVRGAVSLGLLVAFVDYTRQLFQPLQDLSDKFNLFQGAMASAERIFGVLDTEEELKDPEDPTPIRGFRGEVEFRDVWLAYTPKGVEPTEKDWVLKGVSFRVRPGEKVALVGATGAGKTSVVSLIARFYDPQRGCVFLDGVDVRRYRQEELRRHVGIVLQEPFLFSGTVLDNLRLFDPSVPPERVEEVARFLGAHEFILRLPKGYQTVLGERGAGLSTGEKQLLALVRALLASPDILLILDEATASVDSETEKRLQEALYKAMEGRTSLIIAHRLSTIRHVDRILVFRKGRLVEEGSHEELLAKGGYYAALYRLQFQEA
T1 sequence 2: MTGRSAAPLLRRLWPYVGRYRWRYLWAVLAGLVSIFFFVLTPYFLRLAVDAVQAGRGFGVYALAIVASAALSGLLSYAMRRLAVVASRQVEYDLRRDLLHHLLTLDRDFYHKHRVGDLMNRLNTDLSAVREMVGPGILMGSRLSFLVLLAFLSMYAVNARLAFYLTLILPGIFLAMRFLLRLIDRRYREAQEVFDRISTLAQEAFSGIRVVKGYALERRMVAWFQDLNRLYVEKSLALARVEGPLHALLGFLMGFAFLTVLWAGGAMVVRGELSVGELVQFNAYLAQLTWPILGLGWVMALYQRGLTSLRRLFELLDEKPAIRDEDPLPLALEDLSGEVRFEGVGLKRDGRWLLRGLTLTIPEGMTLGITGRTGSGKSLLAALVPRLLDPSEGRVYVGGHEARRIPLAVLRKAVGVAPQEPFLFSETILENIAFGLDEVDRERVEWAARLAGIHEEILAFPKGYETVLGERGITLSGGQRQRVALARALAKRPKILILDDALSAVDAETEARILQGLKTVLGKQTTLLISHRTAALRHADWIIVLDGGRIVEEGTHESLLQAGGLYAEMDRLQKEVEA

TmrAB R132A^TmrA = target: T2, TmrAB R132A^TmrA (Thermus thermophilus, UniProt Q72J05 1-600; Q72J04 1-578, R132A); assay: as above; settings: both partners purified
T2 construct: TmrA, Thermus thermophilus, the chain of TmrAB with the canonical Walker B motif; TmrB, Thermus thermophilus, the chain of TmrAB with the non-canonical Walker B motif
T2 sequence 1: T1 sequence 1 with R132A, A136R
T2 sequence 2: T1 sequence 2

B1: fluorescent transport substrate peptide RRY(C^Fluorescein)KSTEL (peptide)
peptide: RRYC(fluorescein)KSTEL
notes: fluorescein-labelled transport substrate peptide of TmrAB; also called fluorescently-labeled peptide substrate; peptide substrate; source: bought: Genscript
binding result (TmrAB R136A^TmrA): binds | binding result (TmrAB R132A^TmrA): binds
